Assay [1] addresses hVEGFR1-Fc (R&D 321-fl 050/cf) (human) (UniProt P17948). In words: competition ELISA, coated hVEGFR1-Fc, competitor biotin-hVEGFA-165 2 nM; control Ron antibody 0.0023 µg/ml. On the technique in general: ELISA stands for enzyme-linked immunosorbent assay.
Assay [2] shares this target. In words: competition ELISA, coated hVEGFR1-Fc, competitor biotin-hPLGF1 4 nM; control Ron antibody 0.0617 µg/ml.
Assay [3] has the same target. In words: competition ELISA, coated hVEGFR1-Fc, competitor biotin-hVEGFA-165 2 nM; control Ron antibody 5.0000 µg/ml.
Assay [4] has the same target. In words: competition ELISA, coated hVEGFR1-Fc, competitor biotin-hPLGF1 2 nM; control Ron antibody 0.069 µg/ml.
For assay [5] the target is unchanged. In words: competition ELISA, coated hVEGFR1-Fc, competitor biotin-hPLGF1 4 nM; control Ron antibody 0.5556 µg/ml.
The target is the same in assay [6]. In words: competition ELISA, coated hVEGFR1-Fc, competitor biotin-hVEGFA-165 2 nM; control Ron antibody 16.667 µg/ml.
Assay [7] shares this target. In words: competition ELISA, coated hVEGFR1-Fc, competitor biotin-hPLGF1 2 nM; control Ron antibody 16.667 µg/ml.
For assay [8] the target is unchanged. In words: competition ELISA, coated hVEGFR1-Fc, competitor biotin-hPLGF1 4 nM; control Ron antibody 5.0000 µg/ml.
Assay [9] shares this target. In words: competition ELISA, coated hVEGFR1-Fc, competitor biotin-hVEGFA-165 2 nM; control Ron antibody 1.852 µg/ml.
Assay [10] has the same target. In words: competition ELISA, coated hVEGFR1-Fc, competitor biotin-hPLGF1 2 nM; control Ron antibody 5.556 µg/ml.
For assay [11] the target is unchanged. In words: competition ELISA, coated hVEGFR1-Fc, competitor biotin-hVEGFA-165 2 nM; control Ron antibody 0.069 µg/ml.
The target is the same in assay [12]. In words: competition ELISA, coated hVEGFR1-Fc, competitor biotin-hVEGFA-165 2 nM; control Ron antibody 0.617 µg/ml.
Assay [13] shares this target. In words: competition ELISA, coated hVEGFR1-Fc, competitor biotin-hPLGF1 2 nM; control Ron antibody 50.000 µg/ml.
The target is the same in assay [14]. In words: competition ELISA, coated hVEGFR1-Fc, competitor biotin-hPLGF1 4 nM; control Ron antibody 1.6667 µg/ml.
For assay [15] the target is unchanged. In words: competition ELISA, coated hVEGFR1-Fc, competitor biotin-hVEGFA-165 2 nM; control Ron antibody 0.1852 µg/ml.
For assay [16] the target is unchanged. In words: competition ELISA, coated hVEGFR1-Fc, competitor biotin-hVEGFA-165 2 nM; control Ron antibody 50.000 µg/ml.
For assay [17] the target is unchanged. In words: competition ELISA, coated hVEGFR1-Fc, competitor biotin-hPLGF1 4 nM; control Ron antibody 0.1852 µg/ml.
Assay [18] shares this target. In words: competition ELISA, coated hVEGFR1-Fc, competitor biotin-hVEGFA-165 2 nM; control Ron antibody 0.0206 µg/ml.
The target is the same in assay [19]. In words: competition ELISA, coated hVEGFR1-Fc, competitor biotin-hPLGF1 2 nM; control Ron antibody 1.852 µg/ml.
For assay [20] the target is unchanged. In words: competition ELISA, coated hVEGFR1-Fc, competitor biotin-hPLGF1 4 nM; control Ron antibody 0.0069 µg/ml.
The target is the same in assay [21]. In words: competition ELISA, coated hVEGFR1-Fc, competitor biotin-hVEGFA-165 2 nM; control Ron antibody 0.0617 µg/ml.
Assay [22] has the same target. In words: competition ELISA, coated hVEGFR1-Fc, competitor biotin-hVEGFA-165 2 nM; control Ron antibody 5.556 µg/ml.
Assay [23] has the same target. In words: competition ELISA, coated hVEGFR1-Fc, competitor biotin-hPLGF1 4 nM; control Ron antibody 0.0023 µg/ml.
Assay [24] shares this target. In words: competition ELISA, coated hVEGFR1-Fc, competitor biotin-hVEGFA-165 2 nM; control Ron antibody 0.5556 µg/ml.

hVEGFR1-Fc (R&D 321-fl 050/cf) (human), sequence (P17948 27-758): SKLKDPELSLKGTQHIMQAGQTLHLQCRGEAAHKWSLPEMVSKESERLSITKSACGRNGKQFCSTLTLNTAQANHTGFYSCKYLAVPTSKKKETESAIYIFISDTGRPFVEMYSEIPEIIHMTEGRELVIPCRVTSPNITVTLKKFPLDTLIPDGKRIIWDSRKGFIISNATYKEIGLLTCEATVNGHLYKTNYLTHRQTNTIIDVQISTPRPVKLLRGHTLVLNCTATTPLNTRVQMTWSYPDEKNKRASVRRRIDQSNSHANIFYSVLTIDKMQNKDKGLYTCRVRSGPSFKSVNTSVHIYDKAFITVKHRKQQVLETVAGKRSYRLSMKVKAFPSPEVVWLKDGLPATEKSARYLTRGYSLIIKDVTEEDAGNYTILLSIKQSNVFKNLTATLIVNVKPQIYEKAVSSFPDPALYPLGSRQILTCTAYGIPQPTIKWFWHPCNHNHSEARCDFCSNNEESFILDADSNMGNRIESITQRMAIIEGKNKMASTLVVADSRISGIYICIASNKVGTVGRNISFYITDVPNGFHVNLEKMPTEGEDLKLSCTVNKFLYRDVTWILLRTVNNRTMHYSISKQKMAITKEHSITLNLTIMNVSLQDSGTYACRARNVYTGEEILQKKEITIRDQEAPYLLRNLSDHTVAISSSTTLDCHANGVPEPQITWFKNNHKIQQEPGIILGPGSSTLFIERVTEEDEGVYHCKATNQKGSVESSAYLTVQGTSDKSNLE

On to control Ron antibody (R&D MAB691), for which the OD560 (bound biotinylated VEGF-A) was 1.54 OD in [1]; 1.51 OD in assay [3]; 0.566 OD in [6]; 0.53 OD in assay [9]; 0.519 OD in assay [11]; 0.535 OD in assay [12]. Also, the OD560 (bound biotinylated VEGF-A) in assay [15] was 1.46 OD; in assay [16], 0.515 OD; in [18], 1.62 OD; in [21], 1.51 OD; in assay [22], 0.535 OD; in assay [24], 1.47 OD. Moreover, the OD560 (bound biotinylated PlGF) in [2] stood at 0.408 OD; in [4], 0.283 OD; in [5], 0.436 OD; in [7] it was 0.304 OD; in assay [8], 0.407 OD; in [10], 0.298 OD. For the same substance, the OD560 (bound biotinylated PlGF) in assay [13] was determined as 0.339 OD; in assay [14] it was 0.432 OD; in assay [17], 0.405 OD; in assay [19] it was 0.3 OD; in assay [20] it was 0.37 OD; in [23], 0.359 OD.

Values taken from patent US20140271675A1 (Eli Lilly, published 2014).
